Test results as given in US20030100094A1 (NEW ENGLAND BIOLABS, published 2003).
Positions count from the first letter of the chain named. Numbers in names are those of the source.

B1: BbvCI restriction endonuclease subunit R1 (wild type, 275 aa, 31 kDa) (enzyme)
chain: MINEDFFIYEQLSHKKNLEQKGKNAFDEETEELVRQAKSGYHAFIEGINYDEVTKLDLNSSVAALEDYISIAKEIEKKHKMFNWRSDYAGSIIPEFLYRIVHVATVKAGLKPIFSTRNTIIEISGAAHREGLQIRRKNEDFALGFHEVDVKIASESHRVISLAVACEVKTNIDKNKLNGLDFSAERMKRTYPGSAYFLITETLDFSPDENHSSGLIDEIYVLRKQVRTKNRVQKAPLCPSVFAELLEDILEISYRASNVKGHVYDRLEGGKLIRV
notes: Recombinant, co-expressed with the R2 subunit in E. coli; also called BbvCI-R1; subunit 1
B2: BbvCI subunit R1 E167G (mutated subunit of nicking enzyme N.BbvCI 1-37) (enzyme)
chain: B1 chain with E167G
notes: The R1 subunit of enzyme mutant 1-37 (R1E167G:R2+), also called Nt.BbvCI; also called EVK->GVK

How the values were obtained:
[1] = target: T1, BbvCI subunit R2 E177G (mutated subunit of nicking enzyme N.BbvCI 2-12) (Bacillus brevis); test: SDS-PAGE of purified enzyme (subunits co-purify)
T1 construct: The R2 subunit of enzyme mutant 2-12 (R1+:R2E177G), also called Nb.BbvCI; also called ECK->GCK
T1 chain: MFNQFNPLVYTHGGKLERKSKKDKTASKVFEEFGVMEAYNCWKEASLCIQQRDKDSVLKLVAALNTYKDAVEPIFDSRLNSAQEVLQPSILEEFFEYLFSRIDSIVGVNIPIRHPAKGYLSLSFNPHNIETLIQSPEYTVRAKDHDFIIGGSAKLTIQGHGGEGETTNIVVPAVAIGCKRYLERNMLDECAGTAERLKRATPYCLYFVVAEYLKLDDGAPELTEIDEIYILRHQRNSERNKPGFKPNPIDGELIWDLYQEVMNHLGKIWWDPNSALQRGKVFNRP
Source text: (§1) FIG. 9. SDS-PAGE analysis of purified wild type R.BbvCI restriction endonuclease (lanes 2-3: prep. ‘Dan’; lanes 4-6: prep. ‘Diane’), and of purified N.BbvCI nicking endonucleases 2-12 (lanes 7-9), and 1-37 (lanes 10-12). Lane 1 (far left) contains molecular weight markers. All the enzymes preps migrate as two bands of roughly equal intensity signifying that the enzymes are heterodimers with 1:1 subunit stoichiometry.

[2] = target: T2, BbvCI restriction endonuclease subunit R2 (wild type, 285 aa, 32 kDa) (Bacillus brevis); test: SDS-PAGE of purified enzyme (subunits co-purify)
T2 construct: Recombinant, co-expressed with the R1 subunit in E. coli; also called BbvCI-R2; subunit 2
T2 chain: T1 chain with G177E
Source text: as §1

Binder	binding result [1]	binding result [2]
B1	binds	binds
B2		binds
